For experiment [1], the target named is T1, CD47 IgV TEV-His (human, UniProt Q08722 19-141).
T1 construct: range 19-141; also called human CD47 IgV TEV-His; not shown: his tag
The experiment in a line: indirect ELISA, coated CD47-Igv-TEV-his 2 µg/mL. Here is the method:
After blocking, the ELISA plate was washed 3 times with PBST. The ELISA plate containing the test antibodies was incubated at 37° C. for 30 min and then washed 3 times with PBST. […] The data were analyzed and processed by SoftMax Pro 6.2.1.

Experiment [2] concerns the target T2, CD47 on the cell membrane surface (CHO-K1-CLDN18.2-CD47 cells, 3T3-CD47 cells, human red blood cells, human T … (human, UniProt Q08722 19-323)).
T2 construct: whole, on cells; blood cells came from healthy human volunteers; also called cell membrane surface antigen CD47
The experiment in a line: flow cytometry (FACS) on CHO-K1-CLDN18.2-CD47 cells, PE anti-human IgG Fc. On the technique in general: A flow cytometer gives signals particle by particle.
Experimental: CHO-K1-CLDN18.2-CD47 cells (CHO-K1 cells overexpress CLDN18.2 and CD47 antigens, and are obtained from Cell Resource Center, Institute of Basic Medical Sciences, Chinese Academy of Medical Sciences) in the logarithmic growth phase were collected, and were transferred to a V-bottomed 96-well plate at 1×10⁵ cells/well. 100 μL of 1% PBSA (PBS+1% BSA) was added, and the mixture was centrifuged at 1000×g for 5 min, followed by removal of the supernatant. […] The mixture was mixed gently and well, and then incubated on ice for 40 min. 150 μL of 1% PBSA was added to each well, and the mixture was centrifuged at 1000×g for 5 min. The supernatant was discarded, and the plate was further washed three times at 200 μL/time. […] The diluted antibody was added to corresponding samples at 100 μL/well, and the cell pellet was resuspended and incubated on ice in the dark for 0.5 h. 150 μL of 1% PBSA was added to each well, and the mixture was centrifuged at 1000 g for 5 min, followed by removal of the supernatant. Then the plate was washed twice with 200 μL of 1% PBSA. 200 μL of 1% PBSA was added to each well to resuspend the cell pellet, and the mixture was transferred to a flow cytometry tube. FACS Calibur assay was performed, and the binding activity was analyzed.

For a further experiment, the target named is T3, CD47 ECD-His (human, UniProt Q08722 19-141, limits assumed).
T3 construct: extracellular domain; also called human CD47 ECD-His; not shown: His tag
The experiment in a line: BLI (Fortebio Octet), antibody on AHC sensor, CD47 ECD-His 4.94-400 nM, 1:1 fit. As for the experimental part:
The affinity constant of the antibody for human CLDN18.2 and CD47 ECD-His was determined using a Fortebio Octer molecular interaction instrument. The sample dilution buffer was PBS (0.02% Tween-20, 0.1% BSA, pH 7.4). The method for detecting the affinity of the antibody for human CLDN18.2 is as follows. The antibody at 20 nM was immobilized on an AHC sensor for 60 s. The sensor was equilibrated in a buffer for 60 s, and the binding of the immobilized antibody on the sensor to CLDN18.2 His at concentrations of 6.25-100 nM (two-fold dilution) was determined for 180 s. The protein was dissociated in the buffer for 360 s. The method for detecting the affinity of the antibody to human CD47 ECD-His is as follows. The antibody at 30 nM was immobilized on an AHC sensor for 120 s. The sensor was equilibrated in a buffer for 60 s, and the binding of the immobilized antibody on the sensor to the protein CD47 ECD-His at concentrations of 4.94-400 nM (three-fold dilution) was determined for 50 s. The protein was dissociated in the buffer for 120 s. The shaking speed of the sample plate was 1000 rpm, the temperature was 30° C., and the frequency was 5.0 Hz. The data were analyzed by 1:1 model fitting to obtain affinity constants. The data acquisition software was Fortebio Data Acquisition 12.0, and the data analysis software was Fortebio Data Analysis HT 12.0.

The target of experiment [3] is T2, CD47 on the cell membrane surface …. The experiment in a line: competitive flow cytometry on CHO-K1-CLDN18.2-CD47 cells; competitor hSIRPaV2-hFc-mFc at 3 nM. As for the experimental part: 100 μL of 1% PBSA was then added to each well, and the mixture was centrifuged and washed.
For experiment [4], the target named is T4, CLDN18.2 on the cell membrane surface (CHO-K1-CLDN18.2 cells, CHO-K1-CLDN18.2-CD47 cells, CHO-K1-hClaudin18.2 … (human, UniProt P56856-2 1-261)).
T4 construct: whole, on cells; also called human Claudin18.2
The experiment in a line: indirect ELISA screening with CHO-K1-hClaudin18.2 cells as antigen. In general terms: In an ELISA, binding on a coated surface is turned into a signal by an enzyme label.

The target of experiment [5] is T1, CD47 IgV TEV-His. The experiment in a line: indirect ELISA screening with CD47 IgV TEV-His as antigen.
In experiment [6] the target is T5, human CLDN18.2 (ELISA coating antigen) (human, UniProt P56856-2 1-261, limits assumed).
T5 construct: also called antigen human CLDN18.2
The experiment in a line: indirect ELISA, coated human CLDN18.2 2 µg/mL. As for the experimental part:
After blocking, the ELISA plate was washed 3 times with PBST. The ELISA plate containing the test antibodies was incubated at 37° C. for 30 min and then washed 3 times with PBST. […] The ELISA plate was put into a microplate reader immediately, and the OD value of each well in the ELISA plate was read at 450 nm. The data were analyzed and processed by SoftMax Pro 6.2.1.

The EC50 is the concentration at which the effect is half-maximal. A low value points to higher potency in that assay. For orientation: Kd means a measure of binding affinity in units of concentration. Lower therefore signals a tighter complex. Usually koff stands for a measure of how fast the partners let go of each other. In general, kon refers to the second-order rate constant of association. Higher therefore signals faster complex formation.

B1: 6F7H1L1(hG4) (antibody, V domains shown)
VH: QVQLVQSGAEVVKPGASVKLSCKASGYTFTSYWMNWVRQRPGQGLEWIGMIDPSDSETHNAQKFQGKATLTVDKSTSTAYMHLSSLRSEDTAVYYCARLYRWYFDVWGAGTTVTVSS
VL: NIVMTQSPATMSMSPGERVTLSCRASEIVGTYVSWFQQKPGQAPRLLIYGASNRYTGVPARFSGSGSGTDFTLTISSVQPEDLADYHCGQSYNFPYTFGGGTKLEIKR
B1 displayed an EC50 in the experiment with CD47 IgV TEV-His [1] of 0.012 nM. Besides, it took 1.29 nM to reach a half-maximal effect in experiment [2] (EC50). In the experiment with CD47 ECD-His, this molecule registered a Kd of 27.3 nM, a koff of 0.0142 s⁻¹ and a kon of 519000 M⁻¹ s⁻¹. This molecule also had an EC50 in experiment [3] of 5 nM.

B2: 8C5.1 (antibody, V domains shown)
VH: EVQLVESGGGLVKPGGSLKLSCAASGFTFSNSAVSWVRQTPEKRLEWVATITSGVSYTYYLDSVRGRFTISRDNAKNTLYLQMSSLRSEDTAMYYCTRQFKGNALDYWGQGTSVTVSS
VL: DIVMTQSPSSLTVTAGEKVTMSCKSSQSLLNSGNQKNYLTWYQQKPGQPPKLLIYWASTRESGVPDRFTGSGSGTDFTLTINNFQAEDLAVYYCQNDYFYPLTFGAGTKLELK
notes: Mouse hybridoma antibody; also called anti-CLDN18.2 antibody 8C5.1; monoclonal antibody secreted by hybridoma cell line LT020
Turning to B2, the binding result in experiment [4] is “binds”.

B3: 6F7 (antibody, V domains shown)
VH: QVQLQQPGAELVRPGASVKLSCKASGYTFTSYWMNWVKQRPGQGLEWIGMIDPSDSETHNNQMFKDKATLTVDKSSNTAYMHLSSLTSEDSAVYHCARLYRWYFDVWGAGTTVTVSS
VL: NIVMTQSPKSMSMSLGERVTLSCKASEIVGTYVSWFQQKPHQSPKLLIYGASNRYTGVPDRFTGSGSATDFTLTISNVQAEDLADYHCGQSYNFPYTFGGGTKLEIK
notes: Mouse hybridoma antibody; also called anti-CD47 antibody 6F7; monoclonal antibody secreted by hybridoma cell line LT012
B3: the binding result with CD47 IgV TEV-His [5] is on record as “binds”.

B4: IMAB362 (antibody, V domains shown)
VH: QVQLQQPGAELVRPGASVKLSCKASGYTFTSYWINWVKQRPGQGLEWIGNIYPSDSYTNYNQKFKDKATLTVDKSSSTAYMQLSSPTSEDSAVYYCTRSWRGNSFDYWGQGTTLTVSS
VL: DIVMTQSPSSLTVTAGEKVTMSCKSSQSLLNSGNQKNYLTWYQQKPGQPPKLLIYWASTRESGVPDRFTGSGSGTDFTLTISSVQAEDLAVYYCQNDYSYPFTFGSGTKLEIKR
Regarding B4, the EC50 in experiment [6] came to 0.014 nM.
